Tests used:
soluble furin = molecular target: T1, soluble furin (Homo sapiens, UniProt P09958); assay: GDF-15 spanning peptide cleavage monitored by HPLC; assay type: biochemical; conditions: 37° C., 1 h, pH 7.5
T1 construct: recombinant PACE4 or soluble furin (16U); made in house; host or cells: S2 cells (said of recombinant PCs in general)
Source text: (§1) GDF-15 is known to supports both the proliferation and clonogenic potential of LNCaP cells, which is also in line with the observed phenotypes for both PACE4 knockdown and overexpressing cells. This protein is synthetized as a 35 kDa proprotein which requires a PC-based cleavage at the […]^196↓, site to generate a ˜17 kDa C-terminal mature form that associates as a disulfide-linked dimer further secreted in the medium. GDF-15 is only detected in LNCaP cells whereas DU145 express very low levels in both medium and cell lysates (FIGS. 10C and D). […]
(§2) GDF-15 peptide (40 μg) was incubated at 37° C. with recombinant PACE4 or soluble furin (16U) in 100 mM Hepes buffer containing 1 mM CaCl2, 1 mM 3-mercaptoethanol, and 1.8 mg/mL BSA, pH 7.5 (total sample volume: 300 μl) over a period of 1 h. […] After incubation, the reactions were immediately analyzed by the analytical HPLC (Agilent Technologies, 1100 series with a diode array detector and a fraction collector; injection volume: 95 μl, gradient: 2 to 25% […] in 50 min; [A]0.1% aq TFA and [B] acetonitrile+0.1% aq TFA; column: an Agilent Eclipse XDB C18 column (5 μm, 4.6×250 mm). The collected fractions were analysed by SELDI-TOF mass spectrometer (Bio-Rad Laboratories) to identify the cleavage product.

recombinant PACE4 = molecular target: T2, recombinant PACE4 (Homo sapiens, UniProt P29122); assay: GDF-15 spanning peptide cleavage monitored by HPLC; assay type: biochemical; conditions: 37° C., 1 h, pH 7.5
T2 construct: made in house; host or cells: S2 cells
T2 sequence (P29122 150-969): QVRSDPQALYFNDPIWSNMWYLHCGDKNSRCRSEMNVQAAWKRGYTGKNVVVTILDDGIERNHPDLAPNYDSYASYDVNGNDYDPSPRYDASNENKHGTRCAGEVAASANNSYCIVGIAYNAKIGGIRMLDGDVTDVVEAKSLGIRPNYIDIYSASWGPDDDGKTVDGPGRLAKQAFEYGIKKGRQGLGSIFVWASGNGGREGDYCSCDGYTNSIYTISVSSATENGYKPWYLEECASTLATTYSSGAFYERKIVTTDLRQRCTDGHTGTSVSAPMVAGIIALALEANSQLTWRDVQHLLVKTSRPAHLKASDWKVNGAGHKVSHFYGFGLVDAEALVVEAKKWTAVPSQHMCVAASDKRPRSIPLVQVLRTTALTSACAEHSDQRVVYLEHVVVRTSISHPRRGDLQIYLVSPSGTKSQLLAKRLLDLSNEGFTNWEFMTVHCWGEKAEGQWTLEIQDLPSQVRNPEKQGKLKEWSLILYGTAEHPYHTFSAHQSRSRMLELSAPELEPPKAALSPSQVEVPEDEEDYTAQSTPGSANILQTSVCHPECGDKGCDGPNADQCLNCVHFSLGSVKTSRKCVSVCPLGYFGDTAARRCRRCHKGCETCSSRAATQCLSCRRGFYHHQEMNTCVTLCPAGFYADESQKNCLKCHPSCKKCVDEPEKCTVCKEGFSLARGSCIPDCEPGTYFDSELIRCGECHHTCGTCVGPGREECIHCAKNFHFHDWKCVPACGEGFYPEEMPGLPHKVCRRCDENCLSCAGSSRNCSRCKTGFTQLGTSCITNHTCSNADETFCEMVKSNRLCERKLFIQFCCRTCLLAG
Source text: as §1, §2

T1 sequence (P09958 108-715 limits assumed): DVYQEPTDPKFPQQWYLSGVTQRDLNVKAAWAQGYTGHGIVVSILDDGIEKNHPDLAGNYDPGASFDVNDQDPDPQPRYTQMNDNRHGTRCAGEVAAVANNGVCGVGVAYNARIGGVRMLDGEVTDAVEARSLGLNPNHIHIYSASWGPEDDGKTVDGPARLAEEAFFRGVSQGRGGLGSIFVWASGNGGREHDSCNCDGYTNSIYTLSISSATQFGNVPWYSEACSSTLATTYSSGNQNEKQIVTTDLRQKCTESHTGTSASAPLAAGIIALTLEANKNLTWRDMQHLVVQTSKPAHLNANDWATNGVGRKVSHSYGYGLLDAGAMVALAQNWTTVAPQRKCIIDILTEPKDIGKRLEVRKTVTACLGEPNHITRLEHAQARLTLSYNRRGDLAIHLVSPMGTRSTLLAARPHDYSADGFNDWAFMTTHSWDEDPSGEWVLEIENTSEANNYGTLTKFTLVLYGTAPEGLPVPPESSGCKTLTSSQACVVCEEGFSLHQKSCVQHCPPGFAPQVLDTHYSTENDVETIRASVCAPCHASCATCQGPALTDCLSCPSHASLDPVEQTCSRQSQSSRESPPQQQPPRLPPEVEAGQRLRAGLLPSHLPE

cleavage of peptide at the QAARGRRRAR site (soluble furin): cleaved by both PCs
cleavage of peptide at the QAARGRRRAR site (recombinant PACE4): cleaved by both PCs
Sequence: QAARGRRRARARNG (Ac-QAARGRRRARARNG-NH2) [synthetic N-acetylated peptide spanning the GDF-15 cleavage site]
